# Laboratory results: publication PMC9688318, “Construction of a Versatile, Programmable RNA-Binding Protein Using Designer PPR Proteins and Its Application for Splicing Control in Mammalian Cells”
# T1: PPR2.0 t19 (synthetic)
# T1 chain: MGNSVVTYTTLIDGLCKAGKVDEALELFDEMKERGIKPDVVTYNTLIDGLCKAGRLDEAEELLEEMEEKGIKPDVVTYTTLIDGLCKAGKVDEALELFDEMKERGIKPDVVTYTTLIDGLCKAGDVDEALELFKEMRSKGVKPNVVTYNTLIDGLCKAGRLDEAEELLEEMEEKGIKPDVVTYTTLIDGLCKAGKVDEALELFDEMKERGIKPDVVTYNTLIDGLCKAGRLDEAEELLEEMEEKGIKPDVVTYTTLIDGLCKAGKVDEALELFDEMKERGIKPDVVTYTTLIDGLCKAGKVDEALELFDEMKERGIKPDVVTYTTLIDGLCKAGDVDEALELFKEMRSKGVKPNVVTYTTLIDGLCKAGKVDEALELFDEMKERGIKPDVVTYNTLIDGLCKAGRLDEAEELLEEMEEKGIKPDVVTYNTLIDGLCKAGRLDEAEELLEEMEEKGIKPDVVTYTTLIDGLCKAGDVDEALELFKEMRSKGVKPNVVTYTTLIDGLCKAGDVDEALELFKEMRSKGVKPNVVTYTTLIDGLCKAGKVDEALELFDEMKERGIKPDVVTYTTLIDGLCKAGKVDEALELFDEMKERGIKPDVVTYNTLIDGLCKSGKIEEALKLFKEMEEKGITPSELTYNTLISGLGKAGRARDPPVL
# T2: PPR2.0 t23 (synthetic)
# T2 chain: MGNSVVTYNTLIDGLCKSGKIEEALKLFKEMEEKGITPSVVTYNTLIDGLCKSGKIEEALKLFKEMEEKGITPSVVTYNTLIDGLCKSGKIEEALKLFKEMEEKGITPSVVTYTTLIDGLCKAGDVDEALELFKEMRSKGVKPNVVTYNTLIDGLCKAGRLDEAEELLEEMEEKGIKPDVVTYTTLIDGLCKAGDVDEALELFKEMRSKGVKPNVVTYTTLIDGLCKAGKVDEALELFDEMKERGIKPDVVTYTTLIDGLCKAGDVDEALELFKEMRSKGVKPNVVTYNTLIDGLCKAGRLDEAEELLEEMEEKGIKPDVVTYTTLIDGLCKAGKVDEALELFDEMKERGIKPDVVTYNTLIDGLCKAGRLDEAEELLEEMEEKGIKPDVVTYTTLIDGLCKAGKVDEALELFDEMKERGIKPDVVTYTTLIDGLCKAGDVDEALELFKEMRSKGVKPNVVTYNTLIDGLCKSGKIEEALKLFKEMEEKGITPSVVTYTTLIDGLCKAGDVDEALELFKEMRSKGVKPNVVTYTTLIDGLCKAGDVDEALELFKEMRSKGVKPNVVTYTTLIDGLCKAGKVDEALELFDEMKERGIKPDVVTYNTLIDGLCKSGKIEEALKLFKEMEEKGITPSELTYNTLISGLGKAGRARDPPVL
# T3: PPR2.0 t1 (synthetic)
# T3 chain: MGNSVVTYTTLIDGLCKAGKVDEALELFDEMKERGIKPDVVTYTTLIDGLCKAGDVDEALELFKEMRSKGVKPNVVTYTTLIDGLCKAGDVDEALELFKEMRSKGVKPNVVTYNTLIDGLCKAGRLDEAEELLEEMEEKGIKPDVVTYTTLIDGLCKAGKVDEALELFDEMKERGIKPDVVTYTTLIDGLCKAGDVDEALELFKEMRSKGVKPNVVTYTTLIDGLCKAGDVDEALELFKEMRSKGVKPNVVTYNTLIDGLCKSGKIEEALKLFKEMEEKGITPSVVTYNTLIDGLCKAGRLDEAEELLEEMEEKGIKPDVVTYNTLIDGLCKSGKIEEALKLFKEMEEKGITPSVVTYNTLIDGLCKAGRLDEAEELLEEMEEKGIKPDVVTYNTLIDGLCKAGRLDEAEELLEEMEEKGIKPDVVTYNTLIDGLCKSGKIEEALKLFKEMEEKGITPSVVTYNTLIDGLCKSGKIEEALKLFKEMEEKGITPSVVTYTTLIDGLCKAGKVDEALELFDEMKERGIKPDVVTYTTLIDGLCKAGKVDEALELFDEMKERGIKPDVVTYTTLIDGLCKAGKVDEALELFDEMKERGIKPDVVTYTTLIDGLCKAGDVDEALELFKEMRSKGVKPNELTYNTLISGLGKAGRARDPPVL
# T4: PPR2.0 t24 (synthetic)
# T4 chain: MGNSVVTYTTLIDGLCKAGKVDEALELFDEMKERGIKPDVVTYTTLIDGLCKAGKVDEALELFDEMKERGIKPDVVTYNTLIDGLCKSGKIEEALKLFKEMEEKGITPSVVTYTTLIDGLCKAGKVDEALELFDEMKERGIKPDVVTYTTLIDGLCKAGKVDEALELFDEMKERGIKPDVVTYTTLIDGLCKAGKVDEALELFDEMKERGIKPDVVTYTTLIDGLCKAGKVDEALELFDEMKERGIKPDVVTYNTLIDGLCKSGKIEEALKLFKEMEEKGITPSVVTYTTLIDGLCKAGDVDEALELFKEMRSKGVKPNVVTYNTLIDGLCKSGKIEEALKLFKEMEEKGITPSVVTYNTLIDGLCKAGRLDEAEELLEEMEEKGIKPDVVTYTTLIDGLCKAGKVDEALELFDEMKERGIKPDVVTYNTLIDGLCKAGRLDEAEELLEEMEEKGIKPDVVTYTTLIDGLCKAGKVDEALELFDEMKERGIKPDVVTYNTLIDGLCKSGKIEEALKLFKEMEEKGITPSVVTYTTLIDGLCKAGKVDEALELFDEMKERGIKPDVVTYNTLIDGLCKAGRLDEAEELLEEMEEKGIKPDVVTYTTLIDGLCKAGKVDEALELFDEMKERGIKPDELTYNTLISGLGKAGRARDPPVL
# T5: PPR2.0 t3 (synthetic)
# T5 chain: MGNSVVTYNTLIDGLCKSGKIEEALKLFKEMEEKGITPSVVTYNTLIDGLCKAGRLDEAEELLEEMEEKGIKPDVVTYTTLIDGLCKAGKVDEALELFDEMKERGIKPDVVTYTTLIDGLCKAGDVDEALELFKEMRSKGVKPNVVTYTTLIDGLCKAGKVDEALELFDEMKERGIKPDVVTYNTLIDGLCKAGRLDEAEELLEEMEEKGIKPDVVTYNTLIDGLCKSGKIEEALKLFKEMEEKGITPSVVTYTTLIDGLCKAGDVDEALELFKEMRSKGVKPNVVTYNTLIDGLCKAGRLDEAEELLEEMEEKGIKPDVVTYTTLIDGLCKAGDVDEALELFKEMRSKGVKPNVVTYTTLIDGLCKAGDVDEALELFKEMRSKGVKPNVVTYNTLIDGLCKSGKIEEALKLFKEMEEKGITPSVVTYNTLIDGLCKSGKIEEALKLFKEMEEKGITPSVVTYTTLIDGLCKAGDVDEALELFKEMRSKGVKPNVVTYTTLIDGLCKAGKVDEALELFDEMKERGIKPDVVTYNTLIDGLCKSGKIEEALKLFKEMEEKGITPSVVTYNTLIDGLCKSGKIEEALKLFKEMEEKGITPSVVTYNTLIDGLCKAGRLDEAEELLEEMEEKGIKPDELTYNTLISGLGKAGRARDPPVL
# T6: PPR2.0 t2 (synthetic)
# T6 chain: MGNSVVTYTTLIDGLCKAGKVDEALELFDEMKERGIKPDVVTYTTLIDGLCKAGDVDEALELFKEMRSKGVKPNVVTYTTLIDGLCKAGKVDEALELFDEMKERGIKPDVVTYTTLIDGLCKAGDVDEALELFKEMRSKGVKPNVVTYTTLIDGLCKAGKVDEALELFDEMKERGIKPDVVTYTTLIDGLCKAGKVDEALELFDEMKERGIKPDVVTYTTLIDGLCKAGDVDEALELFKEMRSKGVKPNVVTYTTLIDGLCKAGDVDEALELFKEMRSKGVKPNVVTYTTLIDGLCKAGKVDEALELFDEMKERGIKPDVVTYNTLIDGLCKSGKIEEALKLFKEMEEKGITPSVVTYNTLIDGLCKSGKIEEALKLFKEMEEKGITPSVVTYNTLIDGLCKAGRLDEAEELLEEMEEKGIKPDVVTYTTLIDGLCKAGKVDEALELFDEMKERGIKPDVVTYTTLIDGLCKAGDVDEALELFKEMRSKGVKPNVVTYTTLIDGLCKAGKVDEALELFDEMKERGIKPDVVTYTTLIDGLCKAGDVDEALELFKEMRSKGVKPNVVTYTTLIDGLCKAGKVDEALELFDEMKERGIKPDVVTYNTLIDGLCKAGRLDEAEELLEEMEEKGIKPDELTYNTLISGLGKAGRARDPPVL
# Assays:
# PPR2.0 t19 [1] = target: T1, PPR2.0 t19; assay: EMSA; 20 mM Tris-HCl pH 8.0, 150 mM NaCl, 0.5% NP-40, 1 mM DTT, 1 mM EDTA; 20 nM RNA; conditions: tags: N-terminal SBP, C-terminal His6, kept; label: biotin
# PPR2.0 t19 [2] = target: T1, PPR2.0 t19; assay: 20 mM Tris-HCl pH 8.0, 150 mM NaCl, 0.5% NP-40, 1 mM DTT; conditions: tags: N-terminal NanoLuc, C-terminal His6, kept; label: biotin
# PPR2.0 t23 [3] = target: T2, PPR2.0 t23; assay: EMSA; 20 mM Tris-HCl pH 8.0, 150 mM NaCl, 0.5% NP-40, 1 mM DTT, 1 mM EDTA; 20 nM RNA; conditions: tags: N-terminal SBP, C-terminal His6, kept; label: biotin
# PPR2.0 t23 [4] = target: T2, PPR2.0 t23; assay: 20 mM Tris-HCl pH 8.0, 150 mM NaCl, 0.5% NP-40, 1 mM DTT; conditions: tags: N-terminal NanoLuc, C-terminal His6, kept; label: biotin
# PPR2.0 t1 [5] = target: T3, PPR2.0 t1; assay: EMSA; 20 mM Tris-HCl pH 8.0, 150 mM NaCl, 0.5% NP-40, 1 mM DTT, 1 mM EDTA; 20 nM RNA; conditions: tags: N-terminal SBP, C-terminal His6, kept; label: biotin
# PPR2.0 t1 [6] = target: T3, PPR2.0 t1; assay: 20 mM Tris-HCl pH 8.0, 150 mM NaCl, 0.5% NP-40, 1 mM DTT; conditions: tags: N-terminal NanoLuc, C-terminal His6, kept; label: biotin
# MS2 protein = MS2 protein (UniProt P03612 2-130); assay: RBP-ELISA; purified and lysate, dose-dependent; EMSA: 20 mM Tris-HCl pH 8.0, 150 mM NaCl, 0.5% NP-40, 1 mM DTT, 1 mM EDTA, 0.2 pmol biotin-RNA in 10 uL, 6% PAGE in 0.5x TBE; temperature not stated; RBP-ELISA; conditions: protein: recombinant; tags: 6xHis; Nano-luc; chain copies: 2; label: 5'-biotin; hairpin
# PPR2.0 t24 = target: T4, PPR2.0 t24; assay: EMSA; 20 mM Tris-HCl pH 8.0, 150 mM NaCl, 0.5% NP-40, 1 mM DTT, 1 mM EDTA; 20 nM RNA; conditions: tags: N-terminal SBP, C-terminal His6, kept; label: biotin
# PPR2.0 t3 [7] = target: T5, PPR2.0 t3; assay: as above; conditions: tags: N-terminal SBP, C-terminal His6, kept; label: biotin
# PPR2.0 t3 [8] = target: T5, PPR2.0 t3; assay: 20 mM Tris-HCl pH 8.0, 150 mM NaCl, 0.5% NP-40, 1 mM DTT; conditions: tags: N-terminal NanoLuc, C-terminal His6, kept; label: biotin
# PPR2.0 t2 [9] = target: T6, PPR2.0 t2; assay: EMSA; 20 mM Tris-HCl pH 8.0, 150 mM NaCl, 0.5% NP-40, 1 mM DTT, 1 mM EDTA; 20 nM RNA; conditions: tags: N-terminal SBP, C-terminal His6, kept; label: biotin
# PPR2.0 t2 [10] = target: T6, PPR2.0 t2; assay: 20 mM Tris-HCl pH 8.0, 150 mM NaCl, 0.5% NP-40, 1 mM DTT; conditions: tags: N-terminal NanoLuc, C-terminal His6, kept; label: biotin
# MS2 protein, sequence (P03612 2-130): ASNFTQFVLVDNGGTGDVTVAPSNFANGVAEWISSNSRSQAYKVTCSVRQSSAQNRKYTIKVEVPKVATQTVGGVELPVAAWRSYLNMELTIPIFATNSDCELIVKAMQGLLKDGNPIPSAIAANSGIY
binder,measurement,setting,value
GACAUGCGUGAUGUGGAGUUAAGGCGACUG (ssRNA) [Probe_t19],Kd,PPR2.0 t19 [1],173 nM
same,binding signal,PPR2.0 t19 [2],"1.19e+07 RBP-ELISA luminescence, CPS"
GACAUGCCCCAUAGAUGUGACAAGCGACUG (ssRNA) [Probe_t23],Kd,PPR2.0 t23 [3],10.4 nM
same,binding signal,PPR2.0 t23 [4],"3.27e+07 RBP-ELISA luminescence, CPS"
GACAUGCGAAUGAACUCUUCCGGGAGACUG (ssRNA) [Probe_t1],Kd,PPR2.0 t1 [5],3.45 nM
same,binding signal,PPR2.0 t1 [6],"6.64e+07 RBP-ELISA luminescence, CPS"
AGAAAACAUGAGGAUCACCCAUGUCUGCAG (structured_RNA) [Probe_MS2],binding result,MS2 protein,binds
GACAUGCGGCGGGGCACUGUGCGUGGACUG (ssRNA) [Probe_t24],Kd,PPR2.0 t24,11 nM
GACAUGCCUGAGUCAUAACCAGCCUGACUG (ssRNA) [Probe_t3],Kd,PPR2.0 t3 [7],59.2 nM
same,binding signal,PPR2.0 t3 [8],"3.35e+07 RBP-ELISA luminescence, CPS"
GACAUGCGAGAGGAAGCCUGAGAGUGACUG (ssRNA) [Probe_t2],Kd,PPR2.0 t2 [9],4 nM
same,binding signal,PPR2.0 t2 [10],"5.68e+07 RBP-ELISA luminescence, CPS"
